We go through eleven molecules from US20140242080A1 (Hoffmann-La Roche, published 2014).

Residue numbers refer to the chain shown, from its start.

Assay [1] deals with human MCSP expressed on tumor cells (Colo-38, WM266-4, A375, MV-3, HCT-116) (human, UniProt Q6UVK1 30-2322). The experiment in a line: cell-based or functional assay.
The target in assay [2] is T1, hu-MCSP(D3 domain)-avi-his (human, UniProt Q6UVK1 1582-2224).
T1 construct: Recombinant D3 domain with avi and his tags; also called human MCSP(D3 domain)-avi-his; Human MCSP D3
T1 sequence: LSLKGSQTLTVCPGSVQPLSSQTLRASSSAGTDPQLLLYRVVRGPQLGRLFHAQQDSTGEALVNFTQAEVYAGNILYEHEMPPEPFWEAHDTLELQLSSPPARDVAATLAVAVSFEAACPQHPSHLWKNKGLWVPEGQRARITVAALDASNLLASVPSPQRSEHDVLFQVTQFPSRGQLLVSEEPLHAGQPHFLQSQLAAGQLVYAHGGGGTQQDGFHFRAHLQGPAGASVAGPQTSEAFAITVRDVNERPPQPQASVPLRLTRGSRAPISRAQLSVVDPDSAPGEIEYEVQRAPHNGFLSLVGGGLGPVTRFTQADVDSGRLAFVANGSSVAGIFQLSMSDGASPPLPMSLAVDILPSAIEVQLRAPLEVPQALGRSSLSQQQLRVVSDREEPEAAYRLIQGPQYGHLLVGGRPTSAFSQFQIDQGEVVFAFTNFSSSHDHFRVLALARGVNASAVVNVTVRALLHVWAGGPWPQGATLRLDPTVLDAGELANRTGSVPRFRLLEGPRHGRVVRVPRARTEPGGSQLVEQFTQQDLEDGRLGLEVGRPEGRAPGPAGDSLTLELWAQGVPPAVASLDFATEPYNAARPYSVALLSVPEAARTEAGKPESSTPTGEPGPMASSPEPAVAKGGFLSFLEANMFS
The experiment in a line: SPR ProteOn XPR36, 25 C; Fab captured via anti-human F(ab')2, MCSP D3 as analyte. The protocol: Briefly, carboxymethylated dextran biosensor chips (CM5, GE Healthcare) were activated with N-ethyl-N′-(3-dimethylaminopropyl)-carbodiimide hydrochloride (EDC) and N-hydroxysuccinimide (NHS) according to the supplier's instructions. Anti-human F(ab′)2 fragment specific capture antibody was diluted with 10 mM sodium acetate, pH 5.0 at 50 μg/ml before injection at a flow rate of 10 μl/minute to achieve approximately up to 10.000 response units (RU) of coupled capture antibody. Following the injection of the capture antibody, 1 M ethanolamine is injected to block unreacted groups. For kinetics measurements, Fabs from bacterial supernatant or purified Fabs were injected at a flow rate of 10 μl/minute for 300 s and a dissociation of 300 s for capture baseline stabilization. […] The surface of the sensorchip was regenerated by injection of glycine pH 1.5 for 30 s at 90 μl/min followed by injection of NaOH for 20 s at the same flow rate. Association rates (kₒₙ) and dissociation rates (koff) were calculated using a simple one-to-one Langmuir binding model (ProteOn XPR36 Evaluation Software or Scrubber software (BioLogic)) by simultaneously fitting the association and dissociation sensorgrams. The equilibrium dissociation constant (KD) was calculated as the ratio koff/kₒₙ.

Sequence of human MCSP expressed on tumor cells (Colo-38, WM266-4, A375, MV-3, HCT-116) (Q6UVK1 30-2322): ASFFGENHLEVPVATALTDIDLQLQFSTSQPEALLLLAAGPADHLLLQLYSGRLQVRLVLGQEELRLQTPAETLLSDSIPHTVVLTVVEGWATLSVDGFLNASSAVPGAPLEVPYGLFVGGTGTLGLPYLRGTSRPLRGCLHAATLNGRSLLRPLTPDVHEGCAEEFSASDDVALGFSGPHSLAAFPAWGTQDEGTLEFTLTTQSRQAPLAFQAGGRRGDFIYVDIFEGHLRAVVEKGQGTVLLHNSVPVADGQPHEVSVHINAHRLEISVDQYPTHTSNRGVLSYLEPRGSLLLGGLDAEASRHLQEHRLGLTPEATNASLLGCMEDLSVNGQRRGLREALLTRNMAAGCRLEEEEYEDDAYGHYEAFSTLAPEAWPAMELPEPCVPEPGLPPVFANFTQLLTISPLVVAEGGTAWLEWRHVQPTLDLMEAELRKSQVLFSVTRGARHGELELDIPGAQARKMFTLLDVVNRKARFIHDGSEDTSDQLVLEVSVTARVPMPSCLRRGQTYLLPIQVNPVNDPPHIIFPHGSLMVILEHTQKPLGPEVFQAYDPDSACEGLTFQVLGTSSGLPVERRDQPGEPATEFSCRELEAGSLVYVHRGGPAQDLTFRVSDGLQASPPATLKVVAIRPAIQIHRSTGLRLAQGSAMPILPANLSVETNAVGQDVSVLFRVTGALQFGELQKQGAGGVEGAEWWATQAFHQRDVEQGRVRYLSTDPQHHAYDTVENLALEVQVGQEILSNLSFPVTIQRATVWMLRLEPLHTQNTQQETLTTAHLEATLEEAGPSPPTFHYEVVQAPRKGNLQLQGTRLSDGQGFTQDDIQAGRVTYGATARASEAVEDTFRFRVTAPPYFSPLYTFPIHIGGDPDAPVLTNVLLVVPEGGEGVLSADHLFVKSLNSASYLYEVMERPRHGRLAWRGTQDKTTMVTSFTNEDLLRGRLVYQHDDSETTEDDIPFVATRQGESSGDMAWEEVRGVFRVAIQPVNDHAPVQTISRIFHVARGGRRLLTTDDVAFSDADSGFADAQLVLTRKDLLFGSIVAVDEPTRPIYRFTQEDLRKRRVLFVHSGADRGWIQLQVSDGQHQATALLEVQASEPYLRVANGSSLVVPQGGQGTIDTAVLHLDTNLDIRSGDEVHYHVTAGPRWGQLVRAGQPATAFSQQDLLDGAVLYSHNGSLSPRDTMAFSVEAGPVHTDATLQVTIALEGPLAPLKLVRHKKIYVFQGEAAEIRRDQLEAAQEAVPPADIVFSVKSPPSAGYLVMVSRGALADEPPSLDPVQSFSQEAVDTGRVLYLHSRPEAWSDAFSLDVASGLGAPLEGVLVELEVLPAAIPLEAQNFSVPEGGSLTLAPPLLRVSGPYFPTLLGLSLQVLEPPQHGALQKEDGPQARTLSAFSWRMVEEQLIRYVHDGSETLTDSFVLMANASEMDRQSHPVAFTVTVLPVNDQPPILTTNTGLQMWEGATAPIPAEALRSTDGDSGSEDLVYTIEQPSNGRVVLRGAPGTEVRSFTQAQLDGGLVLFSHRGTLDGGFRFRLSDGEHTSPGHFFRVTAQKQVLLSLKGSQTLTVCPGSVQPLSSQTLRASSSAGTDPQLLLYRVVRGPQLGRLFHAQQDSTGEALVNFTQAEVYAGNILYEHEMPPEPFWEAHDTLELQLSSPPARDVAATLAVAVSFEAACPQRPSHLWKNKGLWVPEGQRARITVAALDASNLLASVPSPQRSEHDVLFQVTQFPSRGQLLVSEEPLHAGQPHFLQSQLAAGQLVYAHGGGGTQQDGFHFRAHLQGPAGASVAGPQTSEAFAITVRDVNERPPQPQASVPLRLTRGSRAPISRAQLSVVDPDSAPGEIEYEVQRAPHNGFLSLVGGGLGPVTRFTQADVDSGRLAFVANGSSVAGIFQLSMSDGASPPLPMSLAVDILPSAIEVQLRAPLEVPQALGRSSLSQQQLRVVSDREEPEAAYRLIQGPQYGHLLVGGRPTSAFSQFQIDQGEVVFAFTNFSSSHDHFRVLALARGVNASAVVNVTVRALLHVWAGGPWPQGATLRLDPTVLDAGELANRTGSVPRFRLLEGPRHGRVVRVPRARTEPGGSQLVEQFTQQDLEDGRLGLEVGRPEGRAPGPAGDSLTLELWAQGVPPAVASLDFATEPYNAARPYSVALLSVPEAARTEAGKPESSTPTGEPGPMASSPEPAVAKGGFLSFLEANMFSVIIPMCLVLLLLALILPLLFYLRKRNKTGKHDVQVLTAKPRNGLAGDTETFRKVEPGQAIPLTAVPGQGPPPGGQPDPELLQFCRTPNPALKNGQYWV

B1: 2 + 1 IgG Crossfab; VL/VH exchange (M4-3 ML2/V9) (anti-MCSP/anti-huCD3) (bispecific antibody)
chain 1: EVQLVESGGGLVQPGGSLRLSCAASGYSFTGYTMNWVRQAPGKGLEWVALINPYKGVSTYNQKFKDRFTISVDKSKNTAYLQMNSLRAEDTAVYYCARSGYYGDSDWYFDVWGQGTLVTVSSASVAAPSVFIFPPSDEQLKSGTASVVCLLNNFYPREAKVQWKVDNALQSGNSQESVTEQDSKDSTYSLSSTLTLSKADYEKHKVYACEVTHQGLSSPVTKSFNRGEC
chain 2: not shown
chain 3: not shown
chain 4: QVQLQESGPGLVKPSQTLSLTCTVSGGSITSGYYWNWIRQHPGKGLEWIGYITYDGSNNYNPSLKSRVTISRDTSKNQFSLKLSSVTAADTAVYYCADFDYWGQGTLVTVSSASTKGPSVFPLAPSSKSTSGGTAALGCLVKDYFPEPVTVSWNSGALTSGVHTFPAVLQSSGLYSLSSVVTVPSSSLGTQTYICNVNHKPSNTKVDKKVEPKSCDKTHTCPPCPAPEAAGGPSVFLFPPKPKDTLMISRTPEVTCVVVDVSHEDPEVKFNWYVDGVEVHNAKTKPREEQYNSTYRVVSVLTVLHQDWLNGKEYKCKVSNKALGAPIEKTISKAKGQPREPQVCTLPPSRDELTKNQVSLSCAVKGFYPSDIAVEWESNGQPENNYKTTPPVLDSDGSFFLVSKLTVDKSRWQQGNVFSCSVMHEALHNHYTQKSLSLSPGK
Regarding B1, in assay [1], the “EC50 of T cell-mediated killing (LDH release), MV-3 cells, human PBMCs E:T 10:1, 27 h” value was roughly 0.0822 nM and the “EC50 of T cell-mediated killing (LDH release), WM266-4 cells, human PBMCs E:T 10:1, 26 h” value amounted to 0.0168 nM.

B2: Parental M4-3/ML2 Fab (Fab, V domains shown)
VH: QVQLQESGPGLVKPSQTLSLTCTVSGGSITSGYYWNWIRQHPGKGLEWIGYITYDGSNNYNPSLKSRVTISRDTSKNQFSLKLSSVTAADTAVYYCADFDYWGQGTLVTVSS
VL: DIQMTQSPSSLSASVGDRVTITCRASQGIRNYLNWYQQKPGKAPKLLIYYTSSLHSGVPSRFSGSGSGTDFTLTISSLQPEDFATYYCQQYSKLPWTFGQGTKVEIK
notes: Soluble Fab with Flag tag, bacterial supernatant or purified; also called non-matured parental clone
Regarding B2, the Kd in assay [2] turned out to be 5 nM.

B3: M4-3(D6)/ML2 Fab (Fab, V domains shown)
VH: B2 VH with Y54F, S57K
VL: B2 VL
notes: Soluble Fab with Flag tag
Regarding B3, in assay [2], binding was characterised by a dissociation constant (Kd) of 2 nM.

B4: M4-3/ML2(G3) Fab (Fab, V domains shown)
VH: B2 VH
VL: B2 VL with F71Y, K93A
notes: Soluble Fab with Flag tag
For B4, in assay [2], the affinity, expressed as Kd, was 0.4 nM.

B5: M4-3(C1)/ML2 Fab (Fab, V domains shown)
VH: B2 VH with Y54F
VL: B2 VL
notes: Soluble Fab with Flag tag
In turn, B5 showed a Kd in assay [2] of 0.6 nM.

B6: M4-3/ML2(E10) Fab (Fab, V domains shown)
VH: B2 VH
VL: B2 VL with Q27Y, N31G, Y87H
notes: Soluble Fab with Flag tag
As for B6, the Kd in assay [2] is 0.7 nM.

B7: M4-3(A7)/ML2 Fab (Fab, V domains shown)
VH: B2 VH with S31D, Y54F, S57R
VL: B2 VL
notes: Soluble Fab with Flag tag
For the molecule B7, binding in assay [2] was put at a Kd of 0.02 nM.

B8: M4-3(B8)/ML2 Fab (Fab, V domains shown)
VH: B2 VH with Y54F, S57R
VL: B2 VL
notes: Soluble Fab with Flag tag
Take B8: binding in assay [2] was characterised by a dissociation constant (Kd) of 0.3 nM.

B9: M4-3/ML2(C5) Fab (Fab, V domains shown)
VH: B2 VH
VL: B2 VL with Q27R, N31E, S52G, K93E
notes: Soluble Fab with Flag tag
In assay [2], B9 showed a Kd of 0.7 nM.

B10: 1 + 1 CrossMab; CL/CH1 exchange (LC007/V9) (anti-MCSP/anti-huCD3) (bispecific antibody)
chain 1: DIVLTQSPSSLSASLGDRVTISCSASQGIRNYLNWYQQRPDGTVKLLIYYTSSLHSGVPSRFSGSGSGTDYSLTISNLEPEDIATYYCQQYSKLPWTFGGGTKLEIKRTVAAPSVFIFPPSDEQLKSGTASVVCLLNNFYPREAKVQWKVDNALQSGNSQESVTEQDSKDSTYSLSSTLTLSKADYEKHKVYACEVTHQGLSSPVTKSFNRGEC
chain 2: EVQLQESGPGLVKPSQSLSLTCSVTGYSITSGYYWNWIRQFPGNKLEWMGYITYDGSNNYNPSLKNRISITRDTSKNQFFLKLNSVTTEDTATYYCADFDYWGQGTTLTVSSASTKGPSVFPLAPSSKSTSGGTAALGCLVKDYFPEPVTVSWNSGALTSGVHTFPAVLQSSGLYSLSSVVTVPSSSLGTQTYICNVNHKPSNTKVDKKVEPKSCDKTHTCPPCPAPEAAGGPSVFLFPPKPKDTLMISRTPEVTCVVVDVSHEDPEVKFNWYVDGVEVHNAKTKPREEQYNSTYRVVSVLTVLHQDWLNGKEYKCKVSNKALGAPIEKTISKAKGQPREPQVCTLPPSRDELTKNQVSLSCAVKGFYPSDIAVEWESNGQPENNYKTTPPVLDSDGSFFLVSKLTVDKSRWQQGNVFSCSVMHEALHNHYTQKSLSLSPGK
chain 3: DIQMTQSPSSLSASVGDRVTITCRASQDIRNYLNWYQQKPGKAPKLLIYYTSRLESGVPSRFSGSGSGTDYTLTISSLQPEDFATYYCQQGNTLPWTFGQGTKVEIKSSASTKGPSVFPLAPSSKSTSGGTAALGCLVKDYFPEPVTVSWNSGALTSGVHTFPAVLQSSGLYSLSSVVTVPSSSLGTQTYICNVNHKPSNTKVDKKVEPKSC
chain 4: not shown
In the case of B10, in assay [1], the “EC50 of T cell-mediated killing (LDH release), MV-3 cells, human PBMCs E:T 10:1, 21 h” value came to 0.0884 nM and the “EC50 of T cell-mediated killing (LDH release), WM266-4 cells, human PBMCs E:T 10:1, 21 h” value came out at 0.0539 nM.

B11: 2 + 1 IgG Crossfab; CL/CH1 exchange (M4-3 ML2/V9) (anti-MCSP/anti-huCD3) (bispecific antibody)
chain 1: B10 chain 3
chain 2: not shown
chain 3: B1 chain 4
chain 4: not shown
Consider B11, for which, in assay [1], the “EC50 of T cell-mediated killing (LDH release), MV-3 cells, human PBMCs E:T 10:1, 27 h” value is roughly 0.0117 nM and the “EC50 of T cell-mediated killing (LDH release), WM266-4 cells, human PBMCs E:T 10:1, 26 h” value was 0.0129 nM.

What is called Kd is the constant that tells how readily two partners part at equilibrium.
